According to US5876950:
One block for each molecule: values may come before it.

Key:
human gp39 (human) [1] = target: human gp39 (human) (UniProt P29965)
human gp39 (human) [2] = target: human gp39 (human) (UniProt P29965); remark: listed apart in the source
human gp39 (human) [3] = target: human gp39 (human) (UniProt P29965); remark: listed apart in the source
[4] = target: gp39-CD8 fusion protein mutant Y145/A (murine; human); experiment: ELISA on captured mutant gp39-CD8
[5] = target: gp39-CD8 fusion protein mutant E129/A (murine; human); experiment: ELISA on captured mutant gp39-CD8
Chain of gp39-CD8 fusion protein mutant E129/A (murine; human) (P01731 other isoform, or with tags, fused parts or gaps mutant): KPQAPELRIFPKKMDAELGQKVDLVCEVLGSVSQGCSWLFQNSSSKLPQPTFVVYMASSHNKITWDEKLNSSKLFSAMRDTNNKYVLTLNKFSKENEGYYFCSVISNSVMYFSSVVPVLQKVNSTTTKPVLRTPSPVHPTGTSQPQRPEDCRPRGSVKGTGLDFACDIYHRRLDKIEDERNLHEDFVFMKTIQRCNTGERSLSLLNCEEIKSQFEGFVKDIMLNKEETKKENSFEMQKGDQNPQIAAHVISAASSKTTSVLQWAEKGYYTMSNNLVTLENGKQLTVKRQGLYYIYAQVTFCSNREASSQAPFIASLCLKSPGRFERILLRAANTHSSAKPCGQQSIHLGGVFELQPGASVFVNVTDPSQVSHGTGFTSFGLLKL

[6] = target: gp39-CD8 fusion protein mutant N180/A (murine; human); experiment: ELISA on captured mutant gp39-CD8
Chain of gp39-CD8 fusion protein mutant N180/A (murine; human) (P01731 other isoform, or with tags, fused parts or gaps mutant): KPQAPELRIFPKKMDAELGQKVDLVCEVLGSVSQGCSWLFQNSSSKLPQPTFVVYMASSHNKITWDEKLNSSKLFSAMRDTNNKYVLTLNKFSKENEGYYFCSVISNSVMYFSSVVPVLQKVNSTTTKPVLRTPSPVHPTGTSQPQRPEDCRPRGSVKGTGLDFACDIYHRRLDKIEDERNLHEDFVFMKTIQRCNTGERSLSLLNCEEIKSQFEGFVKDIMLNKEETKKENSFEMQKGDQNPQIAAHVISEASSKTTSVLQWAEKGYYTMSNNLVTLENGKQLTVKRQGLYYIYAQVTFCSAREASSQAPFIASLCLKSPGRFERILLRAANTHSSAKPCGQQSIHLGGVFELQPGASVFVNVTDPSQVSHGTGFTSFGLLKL

[7] = target: gp39-CD8 fusion protein mutant F201/A-E202/A (murine; human); experiment: ELISA on captured mutant gp39-CD8
[8] = target: gp39-CD8 fusion protein mutant S131/A-T135/A (murine; human); experiment: ELISA on captured mutant gp39-CD8
Chain of gp39-CD8 fusion protein mutant S131/A-T135/A (murine; human) (P01731 other isoform, or with tags, fused parts or gaps mutant): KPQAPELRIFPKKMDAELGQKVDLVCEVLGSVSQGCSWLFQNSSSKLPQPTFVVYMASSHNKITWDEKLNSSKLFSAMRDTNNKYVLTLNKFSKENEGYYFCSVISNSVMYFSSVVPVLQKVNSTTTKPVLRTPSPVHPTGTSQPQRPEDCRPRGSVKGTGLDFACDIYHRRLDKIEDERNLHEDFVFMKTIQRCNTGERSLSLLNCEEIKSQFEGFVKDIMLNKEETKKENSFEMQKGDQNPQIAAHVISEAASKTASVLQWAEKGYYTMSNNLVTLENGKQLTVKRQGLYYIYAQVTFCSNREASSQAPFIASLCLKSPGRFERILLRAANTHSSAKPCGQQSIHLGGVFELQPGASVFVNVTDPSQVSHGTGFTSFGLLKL

[9] = target: gp39-CD8 fusion protein mutant K143/A (murine; human); experiment: ELISA on captured mutant gp39-CD8
human gp39 (human) [10] = target: human gp39 (human) (UniProt P29965); experiment: saturation binding of radiolabeled protein to Jurkat cells constitutively expressing gp39
human gp39 (human) [11] = target: human gp39 (human) (UniProt P29965); experiment: Scatchard transformation, BMS-10 Jurkat cells
human gp39 (human) [12] = target: human gp39 (human) (UniProt P29965); experiment: saturation binding of iodinated protein to gp39+ BMS-10 Jurkat cells

Chain of human gp39 (human) (P29965 whole entry, the tested form may be a part): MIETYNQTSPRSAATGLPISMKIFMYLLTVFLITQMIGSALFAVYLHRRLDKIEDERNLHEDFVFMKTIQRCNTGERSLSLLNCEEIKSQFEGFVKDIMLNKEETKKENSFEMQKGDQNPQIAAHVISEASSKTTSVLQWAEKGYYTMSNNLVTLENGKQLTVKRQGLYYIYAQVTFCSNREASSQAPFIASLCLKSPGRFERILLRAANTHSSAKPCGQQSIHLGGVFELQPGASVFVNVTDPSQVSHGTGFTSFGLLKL
Chain of gp39-CD8 fusion protein mutant Y145/A (murine; human) (P01731 other isoform, or with tags, fused parts or gaps mutant): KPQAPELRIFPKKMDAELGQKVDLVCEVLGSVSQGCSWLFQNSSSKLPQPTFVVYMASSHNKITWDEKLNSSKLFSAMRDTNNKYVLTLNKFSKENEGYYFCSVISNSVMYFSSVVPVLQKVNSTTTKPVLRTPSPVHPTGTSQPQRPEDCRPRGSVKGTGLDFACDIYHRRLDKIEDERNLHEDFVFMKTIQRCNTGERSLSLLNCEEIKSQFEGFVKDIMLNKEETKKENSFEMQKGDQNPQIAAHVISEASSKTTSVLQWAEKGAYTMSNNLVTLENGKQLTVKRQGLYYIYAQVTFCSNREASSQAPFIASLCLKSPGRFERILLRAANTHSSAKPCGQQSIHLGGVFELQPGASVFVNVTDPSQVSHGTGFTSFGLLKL

IgM produced, % of medium control (IgG in the next line) (% of medium control) (human gp39 (human) [1]): 87.9 | [3H]thymidine incorporation of B cells, % of medium control (% of medium control) (human gp39 (human) [1]): 87.9
Molecule: negative control monoclonal antibody

IgM produced, % of medium control (IgG in the next line) (% of medium control) (human gp39 (human) [1]): 13.9 | [3H]thymidine incorporation of B cells, % of medium control (% of medium control) (human gp39 (human) [1]): 3.3 | IgG synthesis by B cells at 20 µg/ml purified mAb, % of medium control (% of medium control) (human gp39 (human) [2]): 17 | IgG synthesis at 7.53 x 10^12 binding sites/ml, % of medium only control (% of medium only control) (human gp39 (human) [3]): 12 | binding relative to wild-type gp39 [4]: 106% | binding relative to wild-type gp39 [5]: 70% | binding relative to wild-type gp39 [6]: 93% | binding relative to wild-type gp39 [7]: 112% | binding relative to wild-type gp39 [8]: 89% | binding relative to wild-type gp39 [9]: 5%
B1: monoclonal antibody 39-1.7 (antibody, V domains shown)
VH: EVQLQQSGPELVKPGASVKMSCKASGYTFTDYYMKWVKQSHGKSLEWIGNINPNNGDTFFNQKFEGKATLTVDKSSSAAYMQLNSLTSEDSAVKKCARGPGTNYFDYWGQGTTLTVSS
VL: DIVLTQSPVSLAVSLGQRVTISCRASQSVSSSTNSYMHWYQQKPGQPPKLLIKYASNLESGVPARFSGSGSGTDFTLNIHPVEEEDTATYYCQHSWEIPFTFGSGTKLEIRR

IgM produced, % of medium control (IgG in the next line) (% of medium control) (human gp39 (human) [1]): 17.9 | [3H]thymidine incorporation of B cells, % of medium control (% of medium control) (human gp39 (human) [1]): 2.9 | IgG synthesis by B cells at 20 µg/ml purified mAb, % of medium control (% of medium control) (human gp39 (human) [2]): 8 | fold greater affinity than 106 sFv-Ig (human gp39 (human) [10]): 3 fold | sites per cell (sites per cell) (human gp39 (human) [11]): 10000 | IgG synthesis at 7.53 x 10^12 binding sites/ml, % of medium only control (% of medium only control) (human gp39 (human) [3]): 11 | Kd (human gp39 (human) [12]): 0.4 nM | binding relative to wild-type gp39 [4]: 124% | binding relative to wild-type gp39 [5]: 130% | binding relative to wild-type gp39 [6]: 144% | binding relative to wild-type gp39 [7]: 9% | binding relative to wild-type gp39 [8]: 113% | binding relative to wild-type gp39 [9]: 52%
B2: monoclonal antibody 39-1.106 (antibody, V domains shown)
VH: EVKLVESGGGLVKPGGSLKLSCTTSGFTFNNYAMSWVRQTPEKRLEWVASISSGDSTYYPDSVRGRFTISRDNARNILYLQMSSLRSEDTAMYYCARHYDYDSYAMDYWGQGTSVTVSS
VL: DIQMTQSPASLSASVGETVTITCRASETIYSYLAWYQQKQGRSPQLLVYNAKTLAEGVPSRFSGSGSGTQFSLKINSLQPEDFGSYYCQHHYNTPLTFGTGTKLELKR
